Test results from patent US20240402174A1 (Takeda / Millennium, published 2024).

Tests used:
Assay in all cases: multiplex microsphere immunoassay
GII.4/Sydney VLP = target: T1, GII.4/Sydney VLP (norovirus …, UniProt P54635 1-538)
T1 construct: also called Hu/GII.4/Sydney/NSW0514/2012/AU
T1 chain: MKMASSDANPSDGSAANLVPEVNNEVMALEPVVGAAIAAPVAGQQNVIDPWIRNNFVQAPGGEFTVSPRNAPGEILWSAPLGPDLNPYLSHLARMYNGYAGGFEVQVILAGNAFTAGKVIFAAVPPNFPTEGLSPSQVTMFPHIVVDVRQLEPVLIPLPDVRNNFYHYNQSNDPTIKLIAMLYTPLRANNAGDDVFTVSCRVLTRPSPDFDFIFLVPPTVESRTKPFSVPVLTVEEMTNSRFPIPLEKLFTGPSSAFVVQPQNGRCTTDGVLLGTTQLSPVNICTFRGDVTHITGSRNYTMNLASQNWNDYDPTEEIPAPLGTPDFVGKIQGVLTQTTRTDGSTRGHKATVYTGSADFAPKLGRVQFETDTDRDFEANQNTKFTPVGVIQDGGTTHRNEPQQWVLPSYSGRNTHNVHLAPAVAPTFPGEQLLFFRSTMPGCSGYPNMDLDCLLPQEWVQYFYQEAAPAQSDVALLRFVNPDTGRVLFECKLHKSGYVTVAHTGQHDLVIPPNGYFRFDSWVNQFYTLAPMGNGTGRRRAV

GII.7 VLP = target: T2, GII.7 VLP (norovirus Hu/GII.7/NSW088L/2007/AUS)
T2 construct: also called Hu/GII.7/NSW088L/2007/AUS
T2 chain: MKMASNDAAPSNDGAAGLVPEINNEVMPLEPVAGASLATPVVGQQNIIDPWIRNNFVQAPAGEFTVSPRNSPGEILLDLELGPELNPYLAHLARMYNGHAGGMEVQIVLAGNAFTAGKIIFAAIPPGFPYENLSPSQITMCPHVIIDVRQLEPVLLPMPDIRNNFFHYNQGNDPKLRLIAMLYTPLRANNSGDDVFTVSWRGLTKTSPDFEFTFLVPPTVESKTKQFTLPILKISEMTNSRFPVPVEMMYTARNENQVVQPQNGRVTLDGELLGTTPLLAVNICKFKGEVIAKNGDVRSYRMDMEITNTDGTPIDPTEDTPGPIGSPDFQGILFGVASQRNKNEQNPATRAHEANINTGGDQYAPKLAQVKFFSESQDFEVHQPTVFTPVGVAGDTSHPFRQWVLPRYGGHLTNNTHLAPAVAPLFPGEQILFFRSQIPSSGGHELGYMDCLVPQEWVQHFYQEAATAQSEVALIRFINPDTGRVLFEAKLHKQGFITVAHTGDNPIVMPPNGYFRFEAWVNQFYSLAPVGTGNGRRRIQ

GII.17/2015 VLP = target: T3, GII.17/2015 VLP (norovirus Hu/GII.17/HKG/2015/CUHK-NS-513)
T3 construct: also called Hu/GII.17/HKG/2015/CUHK-NS-513
T3 chain: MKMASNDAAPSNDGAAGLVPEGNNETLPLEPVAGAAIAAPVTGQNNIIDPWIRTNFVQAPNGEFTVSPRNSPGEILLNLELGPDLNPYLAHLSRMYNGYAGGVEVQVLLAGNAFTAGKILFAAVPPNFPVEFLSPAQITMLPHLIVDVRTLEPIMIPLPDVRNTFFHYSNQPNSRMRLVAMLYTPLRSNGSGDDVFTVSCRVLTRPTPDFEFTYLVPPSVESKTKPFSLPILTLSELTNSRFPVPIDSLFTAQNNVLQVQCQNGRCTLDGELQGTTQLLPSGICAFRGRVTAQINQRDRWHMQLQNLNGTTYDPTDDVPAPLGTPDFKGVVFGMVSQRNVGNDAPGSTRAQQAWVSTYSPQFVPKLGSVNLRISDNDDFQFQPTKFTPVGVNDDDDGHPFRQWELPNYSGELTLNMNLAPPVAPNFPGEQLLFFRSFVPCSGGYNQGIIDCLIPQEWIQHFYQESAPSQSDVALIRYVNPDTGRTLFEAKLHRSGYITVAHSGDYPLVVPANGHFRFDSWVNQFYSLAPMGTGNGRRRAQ

GII.4/Consensus VLP = target: T4, GII.4/Consensus VLP (norovirus GII.4 consensus sequence, UniProt P54635 1-539)
T4 chain: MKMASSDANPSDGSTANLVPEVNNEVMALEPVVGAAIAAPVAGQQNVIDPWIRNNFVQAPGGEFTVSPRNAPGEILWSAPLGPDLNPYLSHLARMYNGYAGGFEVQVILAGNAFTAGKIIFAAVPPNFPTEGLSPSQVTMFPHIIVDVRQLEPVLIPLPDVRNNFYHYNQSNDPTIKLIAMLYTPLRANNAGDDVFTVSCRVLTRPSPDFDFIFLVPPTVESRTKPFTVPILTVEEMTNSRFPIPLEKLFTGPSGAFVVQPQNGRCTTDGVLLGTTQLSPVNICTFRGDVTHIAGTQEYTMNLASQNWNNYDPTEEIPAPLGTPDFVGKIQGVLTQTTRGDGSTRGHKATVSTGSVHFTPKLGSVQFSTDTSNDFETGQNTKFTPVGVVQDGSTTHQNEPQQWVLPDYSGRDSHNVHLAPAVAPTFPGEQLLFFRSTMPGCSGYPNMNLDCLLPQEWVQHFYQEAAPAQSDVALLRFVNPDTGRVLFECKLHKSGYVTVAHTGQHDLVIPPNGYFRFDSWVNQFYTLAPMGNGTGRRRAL

GII.2 VLP = target: T5, GII.2 VLP (norovirus Hu/GII.2/OH10026/2010/JP)
T5 chain: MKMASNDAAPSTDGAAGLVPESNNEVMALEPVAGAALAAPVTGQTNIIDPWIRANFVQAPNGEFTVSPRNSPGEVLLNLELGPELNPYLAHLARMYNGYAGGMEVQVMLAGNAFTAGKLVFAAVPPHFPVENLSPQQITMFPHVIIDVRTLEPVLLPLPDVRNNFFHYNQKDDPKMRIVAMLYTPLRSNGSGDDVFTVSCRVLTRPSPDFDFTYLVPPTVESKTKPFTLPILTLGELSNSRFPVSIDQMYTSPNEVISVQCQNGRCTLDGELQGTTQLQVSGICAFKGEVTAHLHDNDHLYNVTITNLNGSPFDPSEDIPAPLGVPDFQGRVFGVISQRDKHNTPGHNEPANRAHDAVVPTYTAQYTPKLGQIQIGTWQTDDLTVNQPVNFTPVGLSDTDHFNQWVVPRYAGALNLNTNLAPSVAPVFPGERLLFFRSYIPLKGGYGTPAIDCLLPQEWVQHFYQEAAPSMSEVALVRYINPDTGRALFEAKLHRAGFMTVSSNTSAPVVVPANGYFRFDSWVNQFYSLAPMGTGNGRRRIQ

B1: human mAb 1431 (antibody, V domains shown)
VH: QVQLVQSGGGLVQPGGSLRLSCAASGFAFSNHGMHWVRQAPGKGLEWLSYISGSTGAIHYANSVKGRFTISRDNARNSLDLQMNSLGDEDTAVYYCARDGPRPDGTGYAGPSNDYWGQGTLVSVSS
VL: EIVLTQSPASLSLSPGERATLSCKASRSISIYLAWYQQKPGQAPRLLIYDASYRAIGIPARFSGSGSGTDFTLTISNLEPEDFAVYYCQHRSSWPALTFGGGTKVEI
notes: also called A1431
For B1, the EC50 (GII.4/Sydney VLP) was 0.026 µg/mL, the binding result (GII.7 VLP) was “no binding” and the binding result (GII.17/2015 VLP) was “no binding”. For the same binder, the EC50 (GII.4/Consensus VLP) was 0.07 µg/mL and the binding result (GII.2 VLP) was “no binding”.

B2: human mAb 1227 (antibody, V domains shown)
VH: QVQLVQSGGGMVQPGGSLSLSCAASGFTLSNYAMTWVRQAPGKGLEWVSSIGGSGGTTYYADSVKGRFTISRDSSMNTLYLQMSNLRAGDTAVYYCAKDKTRTLRLGYSGMDVWGQGTTVTVSS
VL: DIRLTQSPSSLSASVGDRVTITCRASQSISSYLNWYQQKPGKAPDLLIYGASSLQSGVPSRFSGSGSGTDFTLTISSLQPEDFGNYYCQQSFSTPRTFGQGTKVEL
notes: also called A1227
For B2, the EC50 (GII.4/Sydney VLP) was 0.012 µg/mL, the EC50 (GII.7 VLP) was 0.009 µg/mL and the EC50 (GII.17/2015 VLP) was 0.012 µg/mL. It also gave an EC50 (GII.4/Consensus VLP) of 0.216 µg/mL and an EC50 (GII.2 VLP) of 0.105 µg/mL.
